From US20040248211A1, “ICAM-related protein” (priority 1992, published 2004) come the findings set out here.

Test [1] concerns the target T1, baculovirus-produced soluble human ICAM-R (Homo sapiens, UniProt P32942).
T1 sequence (P32942 30-485 limits assumed): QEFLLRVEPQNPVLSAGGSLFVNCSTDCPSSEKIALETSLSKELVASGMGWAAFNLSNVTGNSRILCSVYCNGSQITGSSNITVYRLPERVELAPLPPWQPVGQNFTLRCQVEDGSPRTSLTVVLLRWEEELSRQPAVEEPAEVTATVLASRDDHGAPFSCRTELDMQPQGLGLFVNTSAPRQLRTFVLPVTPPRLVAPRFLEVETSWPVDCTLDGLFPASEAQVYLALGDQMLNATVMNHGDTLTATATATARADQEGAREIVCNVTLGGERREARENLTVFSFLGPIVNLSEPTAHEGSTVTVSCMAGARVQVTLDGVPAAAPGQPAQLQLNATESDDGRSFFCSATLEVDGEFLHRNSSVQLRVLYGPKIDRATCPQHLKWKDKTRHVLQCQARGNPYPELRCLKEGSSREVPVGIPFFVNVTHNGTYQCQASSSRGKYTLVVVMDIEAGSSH
The test can be described thus: ELISA binding of recombinant ICR-8.1 antibodies. The following applies: humanized/chimeric ICR-8.1 chain combinations, human IgG4/kappa. In general terms: An ELISA detects its analyte on a solid surface through an enzyme-linked reagent.

Test [2] concerns T cells. In words: IL-2 production in response to anti-CD3 and ICAM-R proteins. Type of test: cell-based, human. The settings on record: in comparison to the HSA control.
Test [3] relates to Human peripheral blood lymphocytes. In words: Costimulation of lymphocytes by soluble ICAM-R. The class given is cell-based. Here is the method:
shICAM-R (Example 9) was assayed for the ability to costimulate human lymphocyte activation. Human peripheral blood lymphocytes (PBL) were obtained by Ficoll-Hypaque centrifugation and 2×10^5 cells per well were incubated in the presence of either media, plate bound shICAM-R, plate bound anti-CD3 (OKT3) or a combination of plate bound anti-CD3 and shICAM-R. At 17 hours and 4 days after initiation of culture cells were removed, stained with monoclonal antibodies to human lymphocyte activation antigens and analyzed by flow cytometry.

The subject of test [4] is SKW3 cells. In words: Adhesion of PMA-activated SKW3 cells to plate-bound protein. Type of test: cell-based, human. The settings on record: PMA-treated cells. As for the experimental part:
The partially purified shICAM-R protein was assayed for binding to SKW3 cells that were pretreated with phorbol ester as described in Example 7 to activate LFA-1-dependent adhesion. The ICAM-R protein was coated onto 96-well Immulon 4 (Dynatech) plates after adjusting the lectin eluate to 25 mM carbonate pH 9.6 and incubated overnight at 4° C. The plates were washed two times with PBS, blocked for 30 minutes at 37° C. with 200 ul/well PBS, 1% BSA, and washed again with PBS before adding cells. SKW3 cells were washed in serum-free RPMI (Gibco), labelled with Calcein-AM (Molecular Probes), and stimulated with PMA. Cells were then added to the plates and incubated for 1 hour at 37° C. The plates were inverted in prewarmed PBS, 1% BSA and were incubated for 30 minutes. The plates were then removed and half of the contents of each well was aspriated. The plates were then scanned with a fluorescence microscope and an automated fluorescence reader.
Peak fractions from wtHis6, E37His6 and mock transfectants were concentrated about 6.5 fold using Centricon 30 (Amicon) centrifugation units. The resultant concentrates were adjusted to equal vols. (0.34 ml) using PBS-D. Control soluble ICAM-R (15 ug/ml) (Example 9) in carbonate buffer pH 9.6 or in buffer D with 40 mM imidazole were made up. […]

The subject of test [5] is JY cells (LFA-1) binding to ICAM-R/IgG. The test can be described thus: JY cell binding to plate-bound ICAM-R/IgG chimeras. Type of test: cell-based, human. As for the experimental part: The binding of the lymphoblastoid cell line JY, which expresses LFA-1, to wild type ICAM-R/IgG chimera was examined in the presence and absence of LFA-1 specific antibodies or antibodies specific for either domain 1 or 2 of ICAM-R. ICAM-R chimeras were diluted to 10 μg/ml in 0.1M Na-carbonate/bicarbonate buffer pH 9.6 and used to coat triplicate wells (50 μl/well) of an Immulon 4 96-well plate (Dynatech) overnight at 4° C. Wells were washed three times in PBS and blocked with 1% BSA (in PBS) for 1 hour at 37° C. JY cells were labeled with the fluorescent dye Calcein (Moleculat Probes, Eugene, Oreg.) at 8 μg/ml at 37° C. in serum free RPMI for 20 minutes. Cells were washed with RPMI and resuspended in binding buffer (0.2% HSA in RPMI. Approximately 1×10^5 cells were added to each well containing the binding buffer with or without antibody (20 μg/ml of ICR-2.1, ICR-1.1, ICR-3.1, ICR-5.1, ICR-7.1, ICR-8.1, ICR-4.2, ICR-6.2, ICR-9.2, TS1/22 or 60.3) so that the final volume was 0.35 ml. Plates were incubated at 37° C. in the dark for 45 minutes and input fluorescence was quantitated with a fluorescence reader (Millipore) in a 96-well format. Unbound cells were removed by inverting the plate in 0.1% BSA in PBS for 20 minutes. Bound cells were quantitated by measuring the remaining fluorescence and presented as percent input minus background binding to wells coated with BSA alone.

In test [6] the target is T2, soluble baculovirus produced human ICAM-R (Homo sapiens, UniProt P32942).
T2 sequence (P32942 30-485 limits assumed): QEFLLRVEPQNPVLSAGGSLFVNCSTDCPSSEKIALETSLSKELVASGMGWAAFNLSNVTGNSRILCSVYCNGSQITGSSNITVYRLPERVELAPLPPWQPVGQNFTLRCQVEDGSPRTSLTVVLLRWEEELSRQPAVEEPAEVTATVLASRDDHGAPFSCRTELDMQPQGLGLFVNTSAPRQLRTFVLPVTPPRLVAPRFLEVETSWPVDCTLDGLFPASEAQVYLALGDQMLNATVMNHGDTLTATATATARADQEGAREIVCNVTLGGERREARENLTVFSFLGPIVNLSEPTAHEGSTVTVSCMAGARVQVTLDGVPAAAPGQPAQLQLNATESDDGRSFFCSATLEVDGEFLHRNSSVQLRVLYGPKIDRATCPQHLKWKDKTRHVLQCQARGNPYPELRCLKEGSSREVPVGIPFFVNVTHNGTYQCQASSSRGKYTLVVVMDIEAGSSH
The test can be described thus: ELISA binding of recombinant ICR-1.1 antibodies.

B1: HuVHV/MuVK: ICR-8.1 humanized VH with Thr28 and Val71, murine VK (antibody, V domains shown)
VH: QVQLVQSGAEVKKPGASVKVSCKASGYTFTDCIILWVRQAPGQGLEWMGKINPYFGTTTYNLKFKGRVTITVDTSTSTAYMELSSLRSEDTAVYYCARKEAYPDAMDYWGQGTLVTVSS
VL: DAVMTQTPLSLPVSLGDQASISCRSSQSLVHSNGDTYLHWYLQKPGQSPQLLIYKVSNRFSGVPDRFSGSGSGTDFTLKLSRVEAEDLGVYFCSQSTHVPYTFGGGTKLEIK
Regarding B1, the “binding to ICAM-R (ELISA), recombinant ICR-8.1 antibodies” value in test [1] is on record as “equivalence in binding to ICAM-R”.

B2: miJuVH/MuVK: ICR-8.1 miHuVH (Ala60, Gln61, Gln64) heavy chain with murine VK (antibody, V domains shown)
VH: QVQLVQSGAEVKKPGASVKVSCKASGYTFTDCIILWVRQAPGQGLEWMGKINPYFGTTTYAQKFQGRVTITADTSTSTAYMELSSLRSEDTAVYYCARKEAYPDAMDYWGQGTLVTVSS
VL: DAVMTQTPLSLPVSLGDQASISCRSSQSLVHSNGDTYLHWYLQKPGQSPQLLIYKVSNRFSGVPDRFSGSGSGTDFTLKLSRVEAEDLGVYFCSQSTHVPYTFGGGTKLEIK
As for B2, in test [1], the “binding to ICAM-R (ELISA), recombinant ICR-8.1 antibodies” value is listed as “equivalence in binding to ICAM-R”.

B3: shICAM-R: soluble human ICAM-R truncated at amino acid 457, baculovirus expressed (protein)
chain: QEFLLRVEPQNPVLSAGGSLFVNCSTDCPSSEKIALETSLSKELVASGMGWAAFNLSNVTGNSRILCSVYCNGSQITGSSNITVYGLPERVELAPLPPWQPVGQNFTLRCQVEGGSPRTSLTVVLLRWEEELSRQPAVEEPAEVTATVLASRDDHGAPFSCRTELDMQPQGLGLFVNTSAPRQLRTFVLPVTPPRLVAPRFLEVETSWPVDCTLDGLFPASEAQVYLALGDQMLNATVMNHGDTLTATATATARADQEGAREIVCNVTLGGERREARENLTVFSFLGPIVNLSEPTAHEGSTVTVSCMAGARVQVTLDGVPAAAPGQTAQLQLNATESDDGRSFFCSATLEVDGEFLHRNSSVQLRVLYGPKIDRATCPQHLKWKDKTRHVLQCQARGNPYPELRCLKEGSSREVPVGIPFFVNVTHNGTYQCQASSSRGKYTLVVVMDIEAFSSH
B3: the “IL-2 production in response to CD3 mAb” value in test [2] is recorded as “enhanced IL-2 production”. Also, the “expression of activation antigens ICAM-1, IL-2 receptor, transferrin receptor” value in test [3] (4 days, plate bound anti-CD3 0.5 ug/well and protein 100 ng/well, versus anti-CD3 alone) is “elevated levels of the activation antigens ICAM-1, IL-2 receptor and transferrin receptor”; in test [3] (protein 100 ng/well alone, versus media alone), “no increased levels of these activation antigens”. Also, the “adhesion of SKW3 cells to plate bound protein” value in test [4] is “demonstrated adhesion of phorbol ester-activated lymphocytes”.

B4: T38/A: ICAM-R/IgG chimera, Thr38 changed to Ala (protein)
chain: QEFLLRVEPQNPVLSAGGSLFVNCSTDCPSSEKIALEASLSKELVASGMGWAAFNLSNVTGNSRILCSVYCNGSQITGSSNITVYGLPERVELAPLPPWQPVGQNFTLRCQVEGGSPRTSLTVVLLRWEEELSRQPAVEEPAEVTATVLASRDDHGAPFSCRTELDMQPQGLGLFVNTSAPRQLRTFVLPVTPPRLVAPRFLEVETSWPVDCTLDGLFPASEAQVYLALGDQMLNATVMNHGDTLTATATATARADQEGAREIVCNVTLGGERREARENLTVFSFLGPIVNLSEPTAHEGSTVTVSCMAGARVQVTLDGVPAAAPGQTAQLQLNATESDDGRSFFCSATLEVDGEFLHRNSSVQLRVLYGPKIDRATCPQHLKWKDKTRHVLQCQARGNPYPELRCLKEGSSREVPVGIPFFVNVTHNGTYQCQASSSRGKYTLVVVMDIEAFSSH
modifications: left off: a dimerising Fc or GST
notes: ICAM-R/IgG chimera, Thr38 changed to Ala
On to B4, for which the “reduction in JY cell adhesion to variant ICAM-R/IgG chimera” value in test [5] is 70-80%.

B5: L121/P: ICAM-R/IgG chimera with domain 2 mutation L121/P (protein, UniProt P32942 30-485, looked up, variant L121P)
extracellular domain: QEFLLRVEPQNPVLSAGGSLFVNCSTDCPSSEKIALETSLSKELVASGMGWAAFNLSNVTGNSRILCSVYCNGSQITGSSNITVYRLPERVELAPLPPWQPVGQNFTLRCQVEDGSPRTSPTVVLLRWEEELSRQPAVEEPAEVTATVLASRDDHGAPFSCRTELDMQPQGLGLFVNTSAPRQLRTFVLPVTPPRLVAPRFLEVETSWPVDCTLDGLFPASEAQVYLALGDQMLNATVMNHGDTLTATATATARADQEGAREIVCNVTLGGERREARENLTVFSFLGPIVNLSEPTAHEGSTVTVSCMAGARVQVTLDGVPAAAPGQPAQLQLNATESDDGRSFFCSATLEVDGEFLHRNSSVQLRVLYGPKIDRATCPQHLKWKDKTRHVLQCQARGNPYPELRCLKEGSSREVPVGIPFFVNVTHNGTYQCQASSSRGKYTLVVVMDIEAGSSH
modifications: extracellular domain fused to IgG Fc
notes: ICAM-R/IgG chimera with domain 2 mutation L121/P
B5: in test [5] (chimera coated at 10 μg/ml), the “LFA-1 mediated JY cell adhesion to variant ICAM-R/IgG chimera” value is given as “wild type levels of LFA-1 mediated binding”.

B6: HuVH: humanized ICR-1.1 heavy chain V region (Met48) (antibody, V domains shown)
VH: GVQSQVQLVQSGAEVKKPGASVKVSCKASGYTFTVYWMHWVRQAPGQGLEWMGYINPNTDYTEYNQRFQKRVTITADTSTSTAYMELSSLRSEDTAVYYCARWGGNSYGLDYWGQGTLVTVSS
With B6, in test [6], the “deficit in binding compared with murine progenitor chain, ICR-1.1 versions” value was 2-3 fold.

B7: wtHis6: wild type histidine tagged soluble ICAM-R extracellular domain (protein)
chain: QEFLLRVEPQNPVLSAGGSLFVNCSTDCPSSEKIALETSLSKELVASGMGWAAFNLSNVTGNSRILCSVYCNGSQITGSSNITVYGLPERVELAPLPPWQPVGQNFTLRCQVEGGSPRTSLTVVLLRWEEELSRQPAVEEPAEVTATVLASRDDHGAPFSCRTELDMQPQGLGLFVNTSAPRQLRTFVLPVTPPRLVAPRFLEVETSWPVDCTLDGLFPASEAQVYLALGDQMLNATVMNHGDTLTATATATARADQEGAREIVCNVTLGGERREARENLTVFSFLGPIVNLSEPTAHEGSTVTVSCMAGARVQVTLDGVPAAAPGQTAQLQLNATESDDGRSFFCSATLEVDGEFLHRNSSVQLRVLYGPKIDRATCPQHLKWKDKTRHVLQCQARGNPYPELRCLKEGSSREVPVGIPFFVNVTHNGTYQCQASSSRGKYTLVVVMDIEAFSSGPGHHHHHH
In the case of B7, the “adhesion of SKW3 cells to plate bound protein” value in test [4] is “functions as an adhesive ligand for SKW3 cells”.

B8: HuVK: humanized ICR-1.1 kappa chain V region (antibody, V domains shown)
VL: GARCDIQMTQSPSSLSASVGDRVTITCSASSSVSYIYWYQQKPGKAPKLLIYLTSNLASGVPSRFSGSGSGTDFTLTISSLQPEDFATYYCQQWKSIPLTFGQGTKLEIK
On to B8, for which the “deficit in binding compared with murine progenitor chain, ICR-1.1 versions” value in test [6] is 2 fold.
